Biological target: sfGFP-POX10 (superfolder green fluorescent protein POX10 fusion protein)
Assay: SPR

Kd: 74 nM
Substance: PXDN-con4 (human recombinant peroxidasin consisting of the four immunoglobulin domains and the peroxidase domain) (domain or fragment)
